For one substance, IL-10 transcripts by quantitative PCR on NLGP addition to tumour-conditioned mBMDCs; counterbalanced by Laminarin, Dectin-1 siRNA and both and IL-12p35 transcripts by quantitative PCR on NLGP addition to tumour-conditioned mBMDCs; counterbalanced by Laminarin, Dectin-1 siRNA and both results are on record in paper PMC11036628.

For this experiment, the target named is Dectin-1 (mouse (endogenous in bone marrow-derived dendritic cells)) (UniProt Q6QLQ4).
Sequence of UniProt Q6QLQ4 (Q6QLQ4 whole entry): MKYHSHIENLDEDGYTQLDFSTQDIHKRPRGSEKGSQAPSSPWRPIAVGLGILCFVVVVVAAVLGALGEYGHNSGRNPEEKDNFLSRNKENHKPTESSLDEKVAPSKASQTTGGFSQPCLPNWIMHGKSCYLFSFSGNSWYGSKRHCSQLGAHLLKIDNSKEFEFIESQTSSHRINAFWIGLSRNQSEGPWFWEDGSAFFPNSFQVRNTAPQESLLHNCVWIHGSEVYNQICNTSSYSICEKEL

“Neem Leaf Glycoprotein (natural protein)” came in with an IL-10 transcripts by quantitative PCR on NLGP addition to tumour-conditioned mBMDCs; counterbalanced by Laminarin, Dectin-1 siRNA and both of 4.5 fold; an IL-12p35 transcripts by quantitative PCR on NLGP addition to tumour-conditioned mBMDCs; counterbalanced by Laminarin, Dectin-1 siRNA and both of 1.5 fold.
